The chains are these.
B1: hu37D3.v28 (antibody, V domains shown)
VH: EVQLVESGGGLVQPGGSLRLSCAASGLIFRSYGMSWVRQAPGKGLEWVATINSGGTYTYYPDSVKGRFTISRDNSKNTLYLQMNSLRAEDTAVYYCANSYSGAMDYWGQGTLVTVSS
VL: DDVLTQTPLSLPVTPGQPASISCRSSQSIVHSNGNTYFEWYLQKPGQSPQLLIYKVSNRFSGVPDRFSGSGSGTDFTLKISRVEAEDVGVYYCFQGSLVPWTFGQGTKVEIK
B2: hu37D3.v28.A2 (antibody, V domains shown)
VH: B1 VH
VL: B1 VL with L98H
B3: hu37D3.v28.55 (antibody, V domains shown)
VH: B1 VH
VL: B1 VL with G34Q
B4: hu37D3-H9.v5.2 (antibody, V domains shown)
VH: B1 VH
VL: B1 VL with D1E, N33S
B5: hu37D3-H9.v31.2 (antibody, V domains shown)
VH: B1 VH
VL: B1 VL with G34A, N35V
B6: hu37D3.v28.C1 (antibody, V domains shown)
VH: B1 VH
VL: B1 VL with G34N
B7: hu37D3-H9.v31.6 (antibody, V domains shown)
VH: B1 VH
VL: B1 VL with G34A, N35Y
B8: hu37D3.v28.A4 (antibody, V domains shown)
VH: B1 VH
VL: B1 VL with F38L
notes: also called hu37D3-H9.v28.A4
B9: hu37D3.v28.52 (antibody, V domains shown)
VH: B1 VH
VL: B1 VL with D1E, N33K
B10: hu37D3-H9.v31.7 (antibody, V domains shown)
VH: B1 VH
VL: B1 VL with G34A, N35R
B11: hu37D3.v28.B1 (antibody, V domains shown)
VH: B1 VH
VL: B1 VL with N33I, Y37F
B12: hu37D3-H9.v30.3 (antibody, V domains shown)
VH: B1 VH
VL: B1 VL with N33V
B13: hu37D3-H9.v31.8 (antibody, V domains shown)
VH: B1 VH
VL: B1 VL with G34A, T36V
B14: hu37D3-H9.v30.1 (antibody, V domains shown)
VH: B1 VH
VL: B1 VL with N33G
B15: hu37D3.v28.53 (antibody, V domains shown)
VH: B1 VH
VL: B1 VL with D1E, N33R
B16: hu37D3-H9.v5.7 (antibody, V domains shown)
VH: B1 VH
VL: B1 VL with D1E, N35D
B17: hu37D3-H9.v31.5 (antibody, V domains shown)
VH: B1 VH
VL: B1 VL with G34A, N35F
B18: hu37D3.v28.A6 (antibody, V domains shown)
VH: B1 VH
VL: B1 VL with F38L, L98H
B19: hu37D3-H9.v5.9 (antibody, V domains shown)
VH: B1 VH
VL: B1 VL with D1E, N35E
B20: hu37D3-H9.v31.3 (antibody, V domains shown)
VH: B1 VH
VL: B1 VL with G34A, N35I
B21: hu37D3-H9.v5.10 (antibody, V domains shown)
VH: B1 VH
VL: B1 VL with D1E, N35A
B22: hu37D3.v28.B2 (antibody, V domains shown)
VH: B1 VH
VL: B1 VL with N33M, Y37F
B23: hu37D3-H9.v30.2 (antibody, V domains shown)
VH: B1 VH
VL: B1 VL with N33T
B24: hu37D3.v28.54 (antibody, V domains shown)
VH: B1 VH
VL: B1 VL with D1E, N33L
B25: hu37D3.v28.57 (antibody, V domains shown)
VH: B1 VH
VL: B1 VL with G34F
B26: hu37D3-H9.v5.8 (antibody, V domains shown)
VH: B1 VH
VL: B1 VL with D1E, N35Q
B27: hu37D3-H9.v5.11 (antibody, V domains shown)
VH: B1 VH
VL: B1 VL with D1E, N35S
B28: hu37D3-H9.v31.9 (antibody, V domains shown)
VH: B1 VH
VL: B1 VL with G34A, T36I
B29: hu37D3-H9.v30.4 (antibody, V domains shown)
VH: B1 VH
VL: B1 VL with N33L
B30: hu37D3.v28.56 (antibody, V domains shown)
VH: B1 VH
VL: B1 VL with G34Y
B31: hu37D3.v28.B6 (antibody, V domains shown)
VH: B1 VH
VL: B1 VL with N33D, Y37R

Where a chain is given by its changes, count along the chain named.

T1 sequence (P10636 other isoform, or with tags, fused parts or gaps limits assumed): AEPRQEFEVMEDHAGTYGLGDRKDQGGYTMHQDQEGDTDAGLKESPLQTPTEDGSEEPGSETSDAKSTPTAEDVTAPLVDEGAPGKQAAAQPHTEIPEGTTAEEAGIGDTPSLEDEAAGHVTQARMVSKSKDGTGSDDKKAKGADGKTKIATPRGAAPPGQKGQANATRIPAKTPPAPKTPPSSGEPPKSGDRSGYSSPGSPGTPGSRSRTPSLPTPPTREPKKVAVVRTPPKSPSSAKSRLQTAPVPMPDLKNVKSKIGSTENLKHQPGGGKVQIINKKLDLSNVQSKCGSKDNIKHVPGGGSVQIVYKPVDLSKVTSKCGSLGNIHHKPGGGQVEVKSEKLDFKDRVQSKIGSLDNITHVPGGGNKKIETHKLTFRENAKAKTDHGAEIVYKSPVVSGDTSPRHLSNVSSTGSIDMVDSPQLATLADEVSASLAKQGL

The first assay has as its target T1, recombinant human Tau monomer, 2N4R isoform (amino acids 2-441) (human, UniProt P10636-8 2-441).
T1 construct: range 2-441; N-terminal His-tag removed with TEV protease; also called monomeric Tau
In words: SPR; Normalized Rmax post-stress (2 weeks 40 C) / pre-stress. The procedure: (§1) Briefly, IgGs in 1 mL culuture were captured using tip columns that were custom packed with 20 μL MabSelect SuRe resin (Glygen Corp & GE Healthcare). After washing with 1×PBS pH 7.4, IgGs were eluted into 160 μL of 50 mM phosphoric acid pH 3 and neutralized with 12 μL of 20×PBS pH 11. MabSelect SuRe tip columns were stripped in 0.1 M NaOH and regenerated with 1×PBS pH 7.4 for consecutive use of up to 15 times. Purified antibodies in 96-well format were normalized to 0.1 mg/ml using a Hamilton Star liquid handling robot. The “pre-stress” samples were kept at approximately 4° C. and the “post-stress” samples were incubated at 40° C. for two weeks in a PCR machine. Functional stability of the variants was compared by running surface plasmon resonance kinetics experiments with the “pre-stress” and “post-stress” antibody preps. The antibodies were assessed using a human antibody capture CM5 Series S chip generated using the GE Biacore human IgG capture kit and a Biacore T200 instrument. Antibodies diluted to 2 μg/ml were immobilized using a 15 second injection time and 10 μl/min flow rate. Binding to Tau monomer at 0 nM, 26.5 nM and 265 nM, at 25° C., using a flow rate of 40 μl/min, was monitored for a 180 second association phase followed by a 300 second dissociation phase. Samples were run in 10 mM HEPES pH7.4, 150 mM NaCl, 0.05% Tween 20 (HBSP) using a multi-cycle kinetics format. Data was analyzed using BIAevaluation software, fitting a 1:1 binding model. The resulting affinity (KD) values are shown in FIG. 8A-D. A Stability Index was also calculated, using the rationale that affinity-compromised antibodies (due for example to deamidation of key residues) are expected to contribute equally to the IgG capture level (“Ligand Level”) but to contribute less to the measured Tau binding, and that this would be reflected in the experimentally derived value for Rmax. To account for variations in the amount of each antibody captured, Rmax was normalized for the antibody capture level (as measured by “Ligand Level”, Response Units immobilized during antibody capture). Thus Normalized Rmax is calculated as the experimental Rmax (units=RU) divided by the “Ligand Level” (Evaluation output representing the RU captured during the hIgG capture step, units=RU), and Stability Index is calculated here as Normalized Rmax (post-stress) divided by Normalized Rmax (pre-stress).
Regarding B1, the “Stability Index” value worked out at 78%.

As for B2, the “Stability Index” value worked out at 72%.

As for B3, the “Stability Index” value turned out to be 82%.

For the molecule B4, the “Stability Index” value was determined as 97%.

For B5, the “Stability Index” value was 90%.

For the molecule B6, the “Stability Index” value came out at 77%.

Take B7: the “Stability Index” value was 90%.

In the case of B8, the “Stability Index” value is 96%.

Regarding B9, the “Stability Index” value stood at 80%.

For B10, the “Stability Index” value is 83%.

Take B11: the “Stability Index” value stood at 101%.

As to B12, the “Stability Index” value stood at 83%.

On to B13, for which the “Stability Index” value amounted to 78%.

For B14, the “Stability Index” value stood at 87%.

For B15, the “Stability Index” value is 76%.

As for B16, the “Stability Index” value came to 67%.

Consider B17, for which the “Stability Index” value is 85%.

As to B18, the “Stability Index” value stood at 82%.

For the molecule B19, the “Stability Index” value is 95%.

Turning to B20, the “Stability Index” value turned out to be 93%.

For the molecule B21, the “Stability Index” value was determined as 78%.

Turning to B22, the “Stability Index” value is 83%.

B23: the “Stability Index” value turned out to be 96%.

As for B24, the “Stability Index” value came out at 82%.

In the case of B25, the “Stability Index” value came to 88%.

Turning to B26, the “Stability Index” value came out at 90%.

In the case of B27, the “Stability Index” value amounted to 71%.

For B28, the “Stability Index” value is 81%.

Turning to B29, the “Stability Index” value was determined as 87%.

For B30, the “Stability Index” value was determined as 76%.

Consider B31, for which the “Stability Index” value is 46%.

In a further assay the target is T1, recombinant human Tau monomer, 2N4R …. Kind of assay: SPR, captured IgG, Tau monomer analyte, 1:1 model; fit-quality column: Yes. Here is the method:
as §1
In the case of B1, the Kd is 0.9 nM.

With B2, the Kd turned out to be 32.6 nM.

For the molecule B3, the Kd is 2.6 nM.

In the case of B4, the Kd came out at 10.9 nM.

With B5, the Kd is 10.6 nM.

As for B6, the dissociation constant (Kd) amounted to 1.4 nM.

In the case of B7, the Kd came to 15.5 nM.

B8: the Kd worked out at 1.2 nM.

As to B9, the dissociation constant (Kd) amounted to 17.6 nM.

For the molecule B10, the dissociation constant (Kd) turned out to be 6.9 nM.

With B11, the Kd worked out at 24.3 nM.

For B12, the Kd was 38.1 nM.

As to B13, the Kd stood at 10.9 nM.

On to B14, for which the Kd stood at 23.5 nM.

Take B15: the equilibrium dissociation constant (Kd) was determined as 22.9 nM.

Turning to B16, the Kd is 13 nM.

In the case of B17, the Kd came out at 15.2 nM.

Consider B18, for which the Kd was 38.3 nM.

B19: the Kd amounted to 5.3 nM.

As to B20, the dissociation constant (Kd) worked out at 9.8 nM.

Regarding B21, the Kd amounted to 4.7 nM.

Turning to B22, the Kd came out at 31.8 nM.

For the molecule B23, the dissociation constant Kd is 4.2 nM.

Take B24: the Kd was found to be 24.8 nM.

Regarding B25, the Kd is 4.4 nM.

On to B26, for which the Kd amounted to 2.2 nM.

Regarding B27, the dissociation constant Kd is 97.7 nM.

Regarding B28, the equilibrium dissociation constant (Kd) worked out at 7.5 nM.

On to B29, for which the Kd worked out at 22 nM.

Consider B30, for which the dissociation constant (Kd) came out at 5.4 nM.

B31: the Kd came out at 85.6 nM.

(Values after patent US20190367592A1 (AC IMMUNE, published 2019).)
